The target in this test is His-tagged recombinant human LDLR (extracellular domain, hLDLR-ECD) (human) (UniProt P01130). The experiment in a line: SPR.
UniProt P01130, sequence (P01130 22-788): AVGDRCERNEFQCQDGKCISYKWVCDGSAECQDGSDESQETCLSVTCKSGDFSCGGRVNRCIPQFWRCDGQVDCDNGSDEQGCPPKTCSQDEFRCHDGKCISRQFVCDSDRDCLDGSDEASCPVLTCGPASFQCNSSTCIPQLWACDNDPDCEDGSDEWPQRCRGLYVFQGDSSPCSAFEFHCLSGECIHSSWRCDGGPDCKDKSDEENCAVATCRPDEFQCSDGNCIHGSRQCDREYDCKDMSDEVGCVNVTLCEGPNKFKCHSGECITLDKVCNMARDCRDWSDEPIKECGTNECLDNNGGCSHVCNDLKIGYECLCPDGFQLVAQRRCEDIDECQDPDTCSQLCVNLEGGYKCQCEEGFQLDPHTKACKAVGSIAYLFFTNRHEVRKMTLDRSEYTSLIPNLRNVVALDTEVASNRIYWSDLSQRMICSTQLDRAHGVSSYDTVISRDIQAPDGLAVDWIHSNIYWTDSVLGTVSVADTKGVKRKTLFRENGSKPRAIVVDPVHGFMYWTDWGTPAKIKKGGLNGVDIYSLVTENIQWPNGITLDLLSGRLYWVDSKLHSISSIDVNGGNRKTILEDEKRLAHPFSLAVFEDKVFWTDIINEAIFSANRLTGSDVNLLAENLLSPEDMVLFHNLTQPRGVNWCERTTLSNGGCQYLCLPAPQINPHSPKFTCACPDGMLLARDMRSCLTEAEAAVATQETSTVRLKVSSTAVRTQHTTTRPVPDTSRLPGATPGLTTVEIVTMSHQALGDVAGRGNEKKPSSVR

The Kd is a measure of binding affinity in units of concentration. Turning to “VH4127 peptide (cyclo[(D)-Cys-Met-Thz-Arg-Leu-Arg-Gly-Pen])”, the Kd is 40.1 nM.

These data come from doi:10.1101/2023.02.03.526778.
